Patent US20200024330A1

Legend:
Assay in all cases: cell-based or functional assay
[1] = target: HIV-1 Env of isolate MGRM-D-013 (HIV-1)
[2] = target: HIV-1 Env of isolate MGRM-A-014 (clade A), on pseudovirus (HIV-1)
[3] = target: HIV-1 Env of isolate MGRM-C-008 (HIV-1)
[4] = target: HIV-1 Env of isolate MGRM-C-024 (HIV-1)
[5] = target: HIV-1 Env of isolate MGRM-C-013 (HIV-1)
[6] = target: HIV-1 Env of isolate MGRM-C-019 (HIV-1)
[7] = target: HIV-1 Env of isolate 97ZA012 (HIV-1)
[8] = target: HIV-1 Env of isolate VLGCA1 (clade A), on pseudovirus (HIV-1)
[9] = target: HIV-1 Env of isolate 92UG031 (HIV-1)
[10] = target: HIV-1 Env of isolate MGRM-C-020 (HIV-1)
[11] = target: HIV-1 Env of isolate MGRM-D-001 (HIV-1)
[12] = target: HIV-1 Env of isolate MGRM-F1-013 (subtype F), on pseudovirus (HIV-1)
[13] = target: HIV-1 Env of isolate MGRM-C-022 (HIV-1)
[14] = target: HIV-1 Env of isolate 93IN905 (HIV-1)
[15] = target: HIV-1 Env of isolate MGRM-AE-001 (HIV-1)
[16] = target: HIV-1 Env of isolate MGRM-G-025 (subtype G) (HIV-1)

Chain of 5345_I01 (PGT-137) (antibody) (VH): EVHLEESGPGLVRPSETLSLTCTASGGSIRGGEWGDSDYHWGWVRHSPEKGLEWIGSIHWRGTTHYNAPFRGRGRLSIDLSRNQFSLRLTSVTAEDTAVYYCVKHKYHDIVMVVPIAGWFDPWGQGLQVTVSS
Chain of 5345_I01 (PGT-137) (antibody) (VL): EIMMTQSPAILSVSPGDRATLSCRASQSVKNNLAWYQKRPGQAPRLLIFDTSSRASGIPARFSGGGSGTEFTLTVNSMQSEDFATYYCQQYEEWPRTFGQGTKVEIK
Chain of PGT-144 (4970_K22) (antibody) (VH): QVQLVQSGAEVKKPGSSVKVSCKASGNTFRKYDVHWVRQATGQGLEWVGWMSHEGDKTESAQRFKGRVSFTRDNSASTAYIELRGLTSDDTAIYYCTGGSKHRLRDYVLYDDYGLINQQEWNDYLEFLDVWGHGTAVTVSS
Chain of PGT-144 (4970_K22) (antibody) (VL): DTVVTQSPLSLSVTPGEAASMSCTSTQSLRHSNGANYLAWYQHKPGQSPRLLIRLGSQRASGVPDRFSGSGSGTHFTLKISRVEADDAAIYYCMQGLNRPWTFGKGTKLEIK
Chain of PGT-143 (4980_N08) (antibody) (VH): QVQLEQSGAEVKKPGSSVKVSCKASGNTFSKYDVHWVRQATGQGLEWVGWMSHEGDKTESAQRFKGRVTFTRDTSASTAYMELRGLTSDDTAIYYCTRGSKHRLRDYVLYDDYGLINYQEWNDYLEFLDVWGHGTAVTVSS
Chain of PGT-143 (4980_N08) (antibody) (VL): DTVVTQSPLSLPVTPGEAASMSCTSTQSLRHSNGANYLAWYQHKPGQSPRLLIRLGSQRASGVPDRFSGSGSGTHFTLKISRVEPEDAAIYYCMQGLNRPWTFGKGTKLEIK
Chain of PGT-142 (4995_E20) (antibody) (VH): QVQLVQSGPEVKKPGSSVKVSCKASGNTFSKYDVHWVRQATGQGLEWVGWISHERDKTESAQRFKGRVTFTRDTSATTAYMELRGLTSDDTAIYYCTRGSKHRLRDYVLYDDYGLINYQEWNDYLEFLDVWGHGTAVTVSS
Chain of PGT-142 (4995_E20) (antibody) (VL): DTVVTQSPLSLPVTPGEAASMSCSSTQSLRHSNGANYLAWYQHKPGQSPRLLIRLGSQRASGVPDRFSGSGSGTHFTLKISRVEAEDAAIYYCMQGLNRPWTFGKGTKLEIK
Chain of PGT-141 (4964_G22; 4993_K13) (antibody) (VH): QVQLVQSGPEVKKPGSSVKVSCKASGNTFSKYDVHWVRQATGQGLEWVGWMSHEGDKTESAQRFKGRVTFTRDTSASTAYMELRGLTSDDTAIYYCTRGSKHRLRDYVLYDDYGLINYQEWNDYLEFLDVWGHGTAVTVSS

## 5345_I01 (PGT-137) (antibody)
[1]
  IC50: > 50 µg/mL
[2]
  IC50, single-round pseudovirus neutralization: 18.6 µg/mL
[3]
  IC50: > 50 µg/mL
[4]
  IC50: > 50 µg/mL
[5]
  IC50: > 50 µg/mL
[6]
  IC50: > 50 µg/mL
[7]
  IC50: > 50 µg/mL
[8]
  IC50, single-round pseudovirus neutralization: > 50 µg/mL
[9]
  neutralization IC50: > 50 µg/mL
[10]
  IC50: > 50 µg/mL
[11]
  IC50: > 50 µg/mL
[12]
  IC50, pseudovirus neutralization: > 50 µg/mL
[13]
  IC50: > 50 µg/mL
[14]
  IC50: 0.042 µg/mL

## PGT-121 (antibody)
[15]
  IC50 (µg/mL), pseudovirus neutralization: > 50 µg/mL
[9]
  IC50 (µg/mL), pseudovirus neutralization: > 50 µg/mL

## PGT-122 (antibody)
[15]
  IC50 (µg/mL), pseudovirus neutralization: > 50 µg/mL
[9]
  IC50 (µg/mL), pseudovirus neutralization: > 50 µg/mL

## PGT-141 (4964_G22; 4993_K13) (antibody)
[16]
  neutralization IC50: > 50 µg/mL

## PGT-142 (4995_E20) (antibody)
[16]
  neutralization IC50: > 50 µg/mL

## PGT-143 (4980_N08) (antibody)
[16]
  neutralization IC50: > 50 µg/mL

## PGT-144 (4970_K22) (antibody)
[16]
  neutralization IC50: > 50 µg/mL

## PGV04 (antibody)
[1]
  IC50 (µg/mL), pseudovirus neutralization: 0.088 µg/mL
[15]
  IC50 (µg/mL), pseudovirus neutralization: 0.063 µg/mL
[9]
  IC50: 4.46 µg/mL
[11]
  IC50 (µg/mL), pseudovirus neutralization: > 50 µg/mL
[16]
  neutralization IC50: 1.61 µg/mL

## VRC01 (antibody)
[1]
  IC50, pseudovirus neutralization: 0.087 µg/mL
[7]
  neutralization IC50: 0.088 µg/mL
[16]
  neutralization IC50: 0.292 µg/mL
[14]
  neutralization IC50: 0.138 µg/mL
